From the supplement of paper PMC9170038

Assays:
MS2 coat protein [1] = experiment: apparent KD of MS2 coat protein, switch ON state; designed switch direction (-1 OFF switch, 1 ON switch): -1; higher = weaker reporter binding; details: FMN input: 0 or 200 uM; Eterna round: R93 (includes R88 designs)
Summary of the method: (§1)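 Values are apparent KD, taken as the median for each design of fits to normalised binding curves from individual clusters. The designed RNA switches were transcribed on-chip from Illumina sequencing clusters and exposed to SNAP-549-labelled MS2 coat protein at twofold increasing amounts from 0.7 or 1.5 nM to 3 µM. Titration used 100 mM Tris-HCl pH 7.5, 80 mM KCl and 4 mM MgCl2, without or with constant ligand.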

MS2 coat protein [2] = experiment: apparent KD of MS2 coat protein, switch OFF state (with FMN for OFF switches, without FMN for ON switches); designed switch direction (-1 OFF switch, 1 ON switch): -1; higher = weaker reporter binding; details: FMN input: 0 or 200 uM; Eterna round: R93 (includes R88 designs)
Summary of the method: as §1

Row | Sequence | apparent KD of MS2 coat protein (MS2 coat protein [1]) | apparent KD of MS2 coat protein (MS2 coat protein [2])
1 | GAAAAGUGAGGAUAUGCGAAGGCGUCUGAUAGACGAGGCUAGCAGAAGGCACAUGAGGAUCACCCAUGUGGGAA [Mat - Exclusion 4 - Eli mod - D91] | 0.0716 µM | 0.133 µM
2 | GAAAAGUGAGGAUAUUCGGAUAGGAAAACGAAAACCUAUCCGAAGAAGGCACAUGAGGAUCACCCAUGUGGAAG [Mat - Exaclusion 4 - Eli mod - D46] | 0.0261 µM | 0.0307 µM
3 | GAAAAUGGAGGAUAUACAUGAGGAUCACCCAUGUGUAUAAAAAAAUACACAAAAGAAAGUAGAAGGCCAUAAAG [Mat - Exclusion 3 - Mayanna mod - D101] | 0.0314 µM | 0.114 µM
4 | GAAAGGGCAGGAUAUGCAGAGAGAGAGAGAGAGAGAGAGAAACAUGAGGAUCACCCAUGUAGAAGGGCCGAAAG [salish99-ex2-07] | 0.0309 µM | 0.0292 µM
5 | GAAAUACAUGAGGAUCACCCAUGUGAGGAUAUGCUAUGGAAAUAAAAAAUAAAACAUAGCAGAAGGUACAAAAG [Mat - Exclusion 1 - Eli mod - D43] | 0.0218 µM | 0.0546 µM
6 | GAAGAACAUGAGGAUCACCCAUGUCAGGAUAUACAGAAGGGAAUAAAAUAACCUGAAAGUAGAAGGGACAAGAA [Ex 1 May 42] | 0.029 µM | 0.0572 µM
7 | GAAGUGUUAGGAUAUCGAUGAAUAAUAAAACAAAGGAACAUUGAGAAGGAACAUGAGGAUCACCCAUGUAUAAC [May 81] | 0.0277 µM | 0.0252 µM
8 | GAGAAGUGAGGAUAUCGAAGACAGACGAAAAGUCUGUCAAACGAGAAGGCACAUGAGGAUCACCCAUGUGGGAA [Mat - Exaclusion 4 - Eli mod - D76] | 0.0758 µM | 0.141 µM
9 | GAGAAGUGAGGAUAUCGAAGACAGACGAAAAGUCUGUCAAACGAGAAGGCACAUGAGGAUCACCCAUGUGGGAG [Mat - Exaclusion 4 - Eli mod - D75] | 0.0812 µM | 0.302 µM
10 | GAGGUAUGAGGAUAUACAUAGAUACAGACACAUGUUCAAGUACAUGAGGAUCACCCAUGUAGAAGGCAUAUAUC [Mat - Same state - Mayanna Mod - D105] | 0.022 µM | 0.0372 µM
11 | GCUGUGCAAGGAUAUACAUGAGGAUCACCCAUGUGAGAGAAAAAAGUGAGAAAGAAAAGUAGAAGGUGCGUAGG [salish99-ex3-99] | 0.0365 µM | 0.0433 µM
12 | GCUUGGCAAGGAUAUACAUGAGGAUCACCCAUGUGAGAGAAAAAAGUGAGAAAGAAAAGUAGAAGGUGUUGAGG [salish99-ex3-76] | 0.0444 µM | 0.0489 µM
13 | GCUUGGGUAGGAUAUACAUGAGGAUCACCCAUGUGAGAGAAAAAAGUGAGAAAGAAAAGUAGAAGGACUUGAGG [salish99-ex3-83] | 0.177 µM | 0.174 µM
14 | GGAAAACAUGAGGAUCACCCAUGUAAGGAUAUGCAAAAGGAUAUAGAAGGAAAAAAAAGCAGAAGGUACAAAGG [salish99-ex1-21] | 0.0325 µM | 0.151 µM
15 | GGAAAACAUGAGGAUCACCCAUGUGAGGAUAUCCAGGAUAUAGAAGGAGGAUAUAGAAGGAGAAGGCACGAAGG [salish99-ex1-18] | 0.0286 µM | 0.0331 µM
16 | GGAAAACAUGAGGAUCACCCAUGUGAGGAUAUCGAUGUCCAAAAAAAAGUGCGGGACUCGAGAAGGCACUUGGC [salish99-ex1-33] | 0.0515 µM | 0.0343 µM
17 | GGAAAGCAAGGAUAUGCAAACAAACAAACAAACAAAAGGGAACAUGAGGAUCACCCAUGUAGAAGGUGCAAACA [Exclusion 2 Two redone] | 0.0419 µM | 0.0286 µM
18 | GGAAAGCGAGGAUAUACAUGAGGAUCACCCAUGUAAAAGAAAAGAAAAGAAAGAAAAUGUAGAAGGCGCAAAAA [Exclusion 3 plus] | 0.0535 µM | 0.0544 µM
19 | GGAACACAUGAGGAUCACCCAUGUCAGGAUAUGUAGAUAAAAAGAAAAUAAAAUAAAAACAGAAGGGACAAAAG [May 3] | 0.076 µM | 0.0733 µM
20 | GGAGGCGAAGGAUAUACAUGAGGAUCACCCAUGUGAGAGAAAAAAGUGAGAAAGAAAAGUAGAAGGUCGUUUCG [salish99-ex3-128] | 0.0435 µM | 0.081 µM
21 | GGAGGCGUAGGAUAUACAUGAGGAUCACCCAUGUGAGAGAAAAAAGUGAGAAAGAAAAGUAGAAGGACGUUUCG [salish99-ex3-127] | 0.0454 µM | 0.0921 µM
22 | GGAUGCGAAGGAUAUACAUGAGGAUCACCCAUGUGAGAGAAAAAAGUGAGAAAGAAAAGUAGAAGGUCGUGUCG [salish99-ex3-93] | 0.0288 µM | 0.0972 µM
23 | GGGUCACAUGAGGAUCACCCAUGUAAGGAUAUGCUAGGGAUGGAAACCAGGCCGCAACGCAGAAGGUACUAAAG [Janelle Amethyst 18 Mod 13 - Jieux - Exclusion 1] | 0.0507 µM | 0.0645 µM
